From US20080058263A1 (published 2008)

Legend:
Test in all cases: receptor-Fc IP
VEGFR-1-Fc = target: T1, VEGFR-1-Fc (UniProt P17948 27-338)
T1 construct: domain: first three Ig domains; expressed in Drosophila S2 cells, purified on Protein A sepharose; also called VEGFR-1-Fc fusion protein; not shown: Fc fragment from the Signal-pIgPlus vector
Summary of the method: (§1)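 fusion protein at 400 ng/ml in an IP mix (PBS, 1.5% BSA, 0.06% Tween 20, 3 μg/ml heparin) was combined with sample supernatant at a 1:2 ratio. Bound ligand captured by immunoprecipitation with pentahistidine antibody.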

VEGFR-2-Fc = target: T2, VEGFR-2-Fc (UniProt P35968 20-322)
T2 construct: domain: first 3 Ig domains; conditioned supernatant of 293T cells; also called VEGFR-2-Fc fusion protein; not shown: Fc fragment of the pIg vector
Summary of the method: as §1

VEGFR-3-Fc = target: T3, VEGFR-3-Fc (UniProt P35916 25-328)
T3 construct: domain: first three Ig domains; conditioned supernatant of 293T cells; also called VEGFR-3-Fc fusion protein; not shown: Fc fragment of the pIg vector
T3 sequence (looked up): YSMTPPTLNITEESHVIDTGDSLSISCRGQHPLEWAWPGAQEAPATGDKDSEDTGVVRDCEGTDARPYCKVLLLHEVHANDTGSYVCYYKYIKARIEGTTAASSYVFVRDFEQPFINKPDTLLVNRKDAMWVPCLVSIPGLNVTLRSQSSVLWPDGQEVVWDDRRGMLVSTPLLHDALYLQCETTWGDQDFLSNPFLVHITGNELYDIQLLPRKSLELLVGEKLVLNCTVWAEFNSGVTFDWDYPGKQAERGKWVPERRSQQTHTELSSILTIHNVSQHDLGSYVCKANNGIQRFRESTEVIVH
Summary of the method: as §1

Measured: binding result

T1 sequence (P17948 27-338): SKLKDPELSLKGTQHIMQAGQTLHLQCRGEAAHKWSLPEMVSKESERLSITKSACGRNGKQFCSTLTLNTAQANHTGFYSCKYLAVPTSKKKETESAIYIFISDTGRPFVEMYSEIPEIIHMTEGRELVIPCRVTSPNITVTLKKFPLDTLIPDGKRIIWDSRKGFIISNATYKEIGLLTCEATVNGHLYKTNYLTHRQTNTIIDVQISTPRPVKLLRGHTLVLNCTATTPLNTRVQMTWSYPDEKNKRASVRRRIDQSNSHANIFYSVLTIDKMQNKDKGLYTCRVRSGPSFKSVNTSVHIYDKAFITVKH
T2 sequence (P35968 20-322): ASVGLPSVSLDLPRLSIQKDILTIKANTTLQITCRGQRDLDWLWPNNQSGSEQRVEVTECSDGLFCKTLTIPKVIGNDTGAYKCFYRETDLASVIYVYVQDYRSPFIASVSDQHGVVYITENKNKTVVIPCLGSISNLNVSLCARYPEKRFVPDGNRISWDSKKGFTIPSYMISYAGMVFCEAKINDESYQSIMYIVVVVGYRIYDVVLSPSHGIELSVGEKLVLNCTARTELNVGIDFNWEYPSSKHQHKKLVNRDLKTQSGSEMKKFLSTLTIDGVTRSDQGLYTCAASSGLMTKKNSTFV

B1: 62-3 (ligand)
chain: GQNHHEVVKFMDVYQRSYCHPREVCIDVGKEFGVATNTFFKPPCVSVYRCGGCCNSEGLQCVPTEESNITMQIMRIKPHQGQHIGEMSFLQHNKCECRPKKD
no binding: all assays above

B2: 62-5 (ligand)
chain: GQNHHEVVKFMDVYQRSYCHPREVCIDVGKEFGVATNTFFKPPCVSVYRCGGCCNDEGLECVPTEESNITMQIMRIKPHQGQHIGEMSFANHTSCRCMSKLD
no binding: all assays above

B3: 62-7 (ligand)
chain: GQNHHEVVKFMDVYQRSYCHPREVCIDVGKEFGVATNTFFKPPCVSVYRCGGCCNSEGLQCVPTEESNITMQIMRIKPHQGQHIGEMSFANHTSCRCMSKLD
no binding: all assays above

B4: 52-1 (ligand)
chain: AHYNTEILKSIDNEWRKTQCMPIETLVDIFQEFGVATNTFFKPPCVSVYRCGGCCNDEGLECVPTEESNITMQIMRIKPHQGQHIGEMSFLQHNKCECRPKKD
no binding: all assays above

B5: 52-3 (ligand)
chain: AHYNTEILKSIDNEWRKTQCMPIETLVDIFQEFGVATNTFFKPPCVSVYRCGGCCNSEGLQCVPTEESNITMQIMRIKPHQGQHIGEMSFLQHNKCECRPKKD
no binding: all assays above

B6: 52-7 (ligand)
chain: AHYNTEILKSIDNEWRKTQCMPIETLVDIFQEFGVATNTFFKPPCVSVYRCGGCCNSEGLQCVPTEESNITMQIMRIKPHQGQHIGEMSFANHTSCRCMSKLD
no binding: all assays above

B7: 61-2 (ligand)
chain: GQNHHEVVKFMDVYQRSYCHPREVCIDVGKEYPDEIEYIFKPSCVPLMRCGGCCNDEGLECMNTSTSYLSKTLFEIKPHQGQHIGEMSFLQHNKCECRPKKD
no binding: all assays above

B8: 51-9 (ligand)
chain: AHYNTEILKSIDNEWRKTQCMPIETLVDIFQEYPDEIEYIFKPSCVPLMRCGGCCNDEGLECVPTEESNITMQIMRITVPLSQGPKPVTISFLQHNKCECRPKKD
no binding: all assays above

B9: 51-11 (ligand)
chain: AHYNTEILKSIDNEWRKTQCMPIETLVDIFQEYPDEIEYIFKPSCVPLMRCGGCCNSEGLQCVPTEESNITMQIMRITVPLSQGPKPVTISFLQHNKCECRPKKD
no binding: all assays above

B10: 53-11 (ligand)
chain: AHYNTEILKSIDNEWRKTQCMPIETLVDIFQEYPDEIEYIFKPPCVSVYRCGGCCNSEGLQCVPTEESNITMQIMRITVPLSQGPKPVTISFLQHNKCECRPKKD
no binding: all assays above

B11: 51-13 (ligand)
chain: AHYNTEILKSIDNEWRKTQCMPIETLVDIFQEYPDEIEYIFKPSCVPLMRCGGCCNDEGLECVPTEESNITMQIMRITVPLSQGPKPVTISFANHTSCRCMSKLD
no binding: all assays above

B12: 51-15 (ligand)
chain: AHYNTEILKSIDNEWRKTQCMPIETLVDIFQEYPDEIEYIFKPSCVPLMRCGGCCNSEGLQCVPTEESNITMQIMRITVPLSQGPKPVTISFANHTSCRCMSKLD
no binding: all assays above

B13: 53-9 (ligand)
chain: AHYNTEILKSIDNEWRKTQCMPIETLVDIFQEYPDEIEYIFKPPCVSVYRCGGCCNDEGLECVPTEESNITMQIMRITVPLSQGPKPVTISFLQHNKCECRPKKD
no binding: all assays above

B14: 62-4 (ligand)
chain: GQNHHEVVKFMDVYQRSYCHPREVCIDVGKEFGVATNTFFKPPCVSVYRCGGCCNSEGLQCMNTSTSYLSKTLFEIKPHQGQHIGEMSFLQHNKCECRPKKD
no binding: all assays above

B15: 61-10 (ligand)
chain: GQNHHEVVKFMDVYQRSYCHPREVCIDVGKEYPDEIEYIFKPSCVPLMRCGGCCNDEGLECMNTSTSYLSKTLFEITVPLSQGPKPVTISFLQHNKCECRPKKD
no binding: all assays above

B16: 61-12 (ligand)
chain: GQNHHEVVKFMDVYQRSYCHPREVCIDVGKEYPDEIEYIFKPSCVPLMRCGGCCNSEGLQCMNTSTSYLSKTLFEITVPLSQGPKPVTISFLQHNKCECRPKKD
no binding: all assays above

B17: 61-16 (ligand)
chain: GQNHHEVVKFMDVYQRSYCHPREVCIDVGKEYPDEIEYIFKPSCVPLMRCGGCCNSEGLQCMNTSTSYLSKTLFEITVPLSQGPKPVTISFANHTSCRCMSKLD
no binding: all assays above

B18: 53-5 (ligand)
chain: AHYNTEILKSIDNEWRKTQCMPIETLVDIFQEYPDEIEYIFKPPCVSVYRCGGCCNDEGLECVPTEESNITMQIMRIKPHQGQHIGEMSFANHTSCRCMSKLD
no binding: all assays above

B19: 22-1 (ligand)
chain: AHYNTEILKSIDNEWRKTQCMPREVCIDVGKEFGVATNTFFKPPCVSVYRCGGCCNDEGLECVPTEESNITMQIMRIKPHQGQHIGEMSFLQHNKCECRPKKDLVFEQKLISEEDLNSAVDHHHHHH
no binding: all assays above

B20: 52-6 (ligand)
chain: AHYNTEILKSIDNEWRKTQCMPIETLVDIFQEFGVATNTFFKPPCVSVYRCGGCCNDEGLECMNTSTSYLSKTLFEIKPHQGQHIGEMSFANHTSCRCMSKLD
no binding: all assays above

B21: 52-8 (ligand)
chain: AHYNTEILKSIDNEWRKTQCMPIETLVDIFQEFGVATNTFFKPPCVSVYRCGGCCNSEGLQCMNTSTSYLSKTLFEIKPHQGQHIGEMSFANHTSCRCMSKLD
no binding: all assays above

B22: 31-2 (ligand)
chain: GQNHHEVVKSIDNEWRKTQCMPIETLVDIFQEYPDEIEYIFKPSCVPLMRCGGCCNDEGLECVPTEESNITMQIMRIKPHQGQHIGEMSFANHTSCRCMSKLD
no binding: all assays above

B23: 21-15 (ligand)
chain: AHYNTEILKSIDNEWRKTQCMPREVCIDVGKEYPDEIEYIFKPSCVPLMRCGGCCNSEGLQCVPTEESNITMQIMRITVPLSQGPKPVTISFANHTSCRCMSKLD
no binding: all assays above

B24: 53-13 (ligand)
chain: AHYNTEILKSIDNEWRKTQCMPIETLVDIFQEYPDEIEYIFKPPCVSVYRCGGCCNDEGLECVPTEESNITMQIMRITVPLSQGPKPVTISFANHTSCRCMSKLD
no binding: all assays above

B25: 53-15 (ligand)
chain: AHYNTEILKSIDNEWRKTQCMPIETLVDIFQEYPDEIEYIFKPPCVSVYRCGGCCNSEGLQCVPTEESNITMQIMRITVPLSQGPKPVTISFANHTSCRCMSKLD
no binding: all assays above
